Experimental data: US20240010720A1 (IOMX THERAPEUTICS, published 2024)

Tests used:
[1] = target: T1, IGSF11 ECD fused to murine-Fc (human; mouse, UniProt Q5DX21 23-241); assay: ELISA, IgG
T1 construct: also called Fc-fusion IGSF11 ECD; full-length ECD of IGSF11; not shown: murine Fc
T1 sequence: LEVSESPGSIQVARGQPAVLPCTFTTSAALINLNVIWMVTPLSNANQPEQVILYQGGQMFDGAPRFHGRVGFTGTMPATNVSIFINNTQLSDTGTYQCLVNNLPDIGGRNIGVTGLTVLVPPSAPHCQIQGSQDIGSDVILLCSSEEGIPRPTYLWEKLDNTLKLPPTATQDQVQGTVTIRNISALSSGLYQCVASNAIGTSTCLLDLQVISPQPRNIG

[2] = target: T2, human IGSF11 (VSIG3) on cells (human, UniProt Q5DX21 23-431); assay: FACS, DMS 273 cells
T2 sequence: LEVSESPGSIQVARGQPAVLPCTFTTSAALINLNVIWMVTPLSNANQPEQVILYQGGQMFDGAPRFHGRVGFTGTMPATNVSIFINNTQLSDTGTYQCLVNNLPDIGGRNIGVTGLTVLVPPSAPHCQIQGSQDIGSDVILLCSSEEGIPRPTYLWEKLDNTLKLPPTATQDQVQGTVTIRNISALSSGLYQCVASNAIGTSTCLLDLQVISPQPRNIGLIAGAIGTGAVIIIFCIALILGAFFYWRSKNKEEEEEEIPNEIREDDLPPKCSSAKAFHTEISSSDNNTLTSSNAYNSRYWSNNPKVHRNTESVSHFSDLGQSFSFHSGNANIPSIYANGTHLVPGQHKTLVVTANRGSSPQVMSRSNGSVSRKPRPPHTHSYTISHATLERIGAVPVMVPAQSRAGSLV

[3] = target: T3, His-tagged extracellular domain (ECD) of human IGSF11 (VSIG3) (human, UniProt Q5DX21 23-241); assay: ELISA EC50 grade, IgG1
T3 construct: partly bought (SinoBiological 13094-H08H); also called IGSF11-HIS; HIS-IGSF11; not shown: HIS6 tag
T3 sequence: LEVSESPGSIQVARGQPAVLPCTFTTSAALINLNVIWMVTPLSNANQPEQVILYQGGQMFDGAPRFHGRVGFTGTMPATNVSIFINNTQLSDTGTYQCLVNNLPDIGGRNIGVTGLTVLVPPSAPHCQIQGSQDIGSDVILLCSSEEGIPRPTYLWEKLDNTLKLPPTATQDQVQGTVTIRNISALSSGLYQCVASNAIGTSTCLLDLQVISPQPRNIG

[4] = target: T2, human IGSF11 (VSIG3) on cells; assay: FACS, HEK cells expressing IGSF11
[5] = target: T4, recombinant human IGSF11 (VSIG3) extracellular domain (ECD) (human, UniProt Q5DX21 23-241, biotinylated where captured on streptavidin); assay: SPR, IgG1
T4 construct: also called biotinylated recombinant ECD-IGSF11; IGSF11 (ECD domain)
T4 sequence: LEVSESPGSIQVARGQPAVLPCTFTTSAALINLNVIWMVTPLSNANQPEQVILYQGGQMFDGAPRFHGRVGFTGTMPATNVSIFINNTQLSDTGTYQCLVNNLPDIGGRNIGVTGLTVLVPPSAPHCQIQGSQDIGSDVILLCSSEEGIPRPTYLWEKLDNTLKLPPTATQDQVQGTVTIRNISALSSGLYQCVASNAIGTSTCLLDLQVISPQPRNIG

[6] = target: T5, recombinant cynomolgus monkey IGSF11 extracellular domain (ECD) (cynomolgus monkey, UniProt Q5DX21 23-241 (human entry), biotinylated); assay: ELISA, Fab
T5 chain: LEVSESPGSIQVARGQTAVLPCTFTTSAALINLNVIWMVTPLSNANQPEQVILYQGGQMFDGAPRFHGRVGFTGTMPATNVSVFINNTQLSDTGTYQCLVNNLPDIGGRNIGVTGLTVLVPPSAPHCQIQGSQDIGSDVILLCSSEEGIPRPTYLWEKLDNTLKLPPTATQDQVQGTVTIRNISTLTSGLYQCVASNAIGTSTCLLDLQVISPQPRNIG
Method: (§1) In order to identify IGSF11-specific binding ABPs, monoclonal Fabs expressed from E. coli were generated from the enriched set of anti-IGFS11 antibody-expressing phage. After bacterial lysis, the Fabs were tested for their binding properties and cross-reactivity profile on recombinant ECD-IGSF11 (human, mouse and cynomolgus monkey) by standard ELISA. Briefly, biotinylated recombinant ECD-IGSF11 from human, mouse, or cynomolgus monkey were immobilized at 2 ug/mL on a streptavidin-coated 384-well Maxisorp plate. The surface was blocked with 2% (w/v) skim milk powder in PBST. After three wash cycles with PBST, a bacterial lysate of each of the anti-IGSF11 Fabs in 2% (w/v) skim milk powder was applied to the immobilized IGSF11 and incubated for 1 h. After removing all unbound Fab by 3 wash cycles with PBST, bound Fab antibodies were detected with a goat anti-human Fab antibody conjugated with horseradish peroxidase. After three wash cycles with PBST the ELISA was developed with TMB substrate.

[7] = target: T2, human IGSF11 (VSIG3) on cells; assay: FACS, IgG1-format antibodies; CL-11 cells (C), a line that does not express IGSF11 (specificity control), scrambled control siRNA (SC)
[8] = target: T2, human IGSF11 (VSIG3) on cells; assay: FACS, IgG1-format antibodies; M579-A2-luc cells (M) treated with scrambled control siRNA (SC)
[9] = target: T2, human IGSF11 (VSIG3) on cells; assay: FACS, IgG1-format antibodies; DMS 273 cells (D) treated with scrambled control siRNA (SC)
[10] = target: T2, human IGSF11 (VSIG3) on cells; assay: FACS, IgG1-format antibodies; M579-A2-luc cells (M) treated with IGSF11 siRNA (KD)
[11] = target: T2, human IGSF11 (VSIG3) on cells; assay: FACS, IgG1-format antibodies; CL-11 cells (C), a line that does not express IGSF11 (specificity control), IGSF11 siRNA (KD)
[12] = target: T2, human IGSF11 (VSIG3) on cells; assay: FACS, IgG1-format antibodies; DMS 273 cells (D) treated with IGSF11 siRNA (KD)
[13] = target: T6, recombinant murine IGSF11 extracellular domain (ECD) (mouse, UniProt P0C673 23-240, biotinylated); assay: ELISA, Fab
T6 construct: also called Mouse IGSF11; murine ECD-IGSF11
T6 sequence: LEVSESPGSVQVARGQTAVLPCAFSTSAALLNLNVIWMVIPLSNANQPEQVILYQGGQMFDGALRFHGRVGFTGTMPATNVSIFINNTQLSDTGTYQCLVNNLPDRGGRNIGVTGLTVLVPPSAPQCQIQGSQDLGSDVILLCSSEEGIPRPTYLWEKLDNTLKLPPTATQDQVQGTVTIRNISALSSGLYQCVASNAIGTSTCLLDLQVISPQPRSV
Method: as §1

Streptavidin = target: T7, Streptavidin (UniProt P22629 37-163, limits assumed); assay: ELISA, Fab
T7 construct: also called negative antigen; irrelevant antigen
Method: as §1

murine IGSF11 on cells [14] = target: T8, murine IGSF11 on cells (mouse, UniProt P0C673 23-428); assay: FACS, CT26-IGSF11 cells, IgG
T8 construct: UniProt P0C673; also called MC38-IGSF11 (murine); CT26-IGSF11 (murine)
T8 sequence: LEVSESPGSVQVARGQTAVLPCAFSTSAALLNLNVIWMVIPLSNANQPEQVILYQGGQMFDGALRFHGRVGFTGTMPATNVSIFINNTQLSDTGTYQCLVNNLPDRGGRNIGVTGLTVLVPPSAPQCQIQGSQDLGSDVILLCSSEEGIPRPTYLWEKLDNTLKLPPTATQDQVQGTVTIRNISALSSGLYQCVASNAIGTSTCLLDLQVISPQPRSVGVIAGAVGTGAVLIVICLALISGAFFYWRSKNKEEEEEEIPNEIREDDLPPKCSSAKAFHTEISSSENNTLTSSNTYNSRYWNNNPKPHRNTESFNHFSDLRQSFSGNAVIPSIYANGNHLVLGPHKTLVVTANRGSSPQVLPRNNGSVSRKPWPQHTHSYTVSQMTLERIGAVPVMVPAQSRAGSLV
From the text: (§2) Unbound antibodies were removed by washing the cells three time with FACS buffer. Bound antibodies were detected with a mouse anti-human IgG antibody conjugated with AlexaFluor647.

murine IGSF11 on cells [15] = target: T8, murine IGSF11 on cells; assay: FACS, MC38-IGSF11 cells, IgG
From the text: as §2

T7 sequence (P22629 37-163 limits assumed): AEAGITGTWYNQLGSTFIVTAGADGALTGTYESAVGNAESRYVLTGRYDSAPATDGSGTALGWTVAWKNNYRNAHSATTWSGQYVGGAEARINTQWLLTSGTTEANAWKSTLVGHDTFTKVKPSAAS

B1: A-022 (IgG1 format) (antibody, V domains shown)
VH: EVQLLESGPGLVKPSQTLSLTCTVSGGSISSGGYYWSWIRQHPGKGLEWIGYIYYSGSTYYNPSLKSRVTISVDTSKNQFSLKLSSVTAADTAVYYCARASRSTDYYFDYWGQGTLVTVSS
VL: QPGLTQPPSMSYGLGQTATLTCTGNRNNIGDQGAAWLQQHQGHPPKLLSYRNNNGPSGISERLSASRSGNTASLTISGLQPEDEADYYCSAWDSSLRAWVFGGGTKLTVL
notes: human IgG1 format
[1]
  EC50: < 1 nM
[2]
  EC50: 10 to 50 nM
[3]
  EC50: < 0.02 nM
[4]
  EC50: 10 to 50 nM

B2: A-034 (IgG1 format) (antibody, V domains shown)
VH: QMQLVQSGGGLVKPGGSLRLSCAASGFTFSSYTMNWVRQAPGKGLEWVSSISSIGTYIYYADSVKGRFTISRDNAKNSLYLQMNSLRAEDTAVYYCARVLLSGSYYGYFDSWGQGTLVTVSS
VL: QSVLTQPPSVSGAPGQRVTISCTGSSSNIGAGYDVHWYQQLPGTAPKLFIYGNSNRPSGVPDRFSGSKSGTSASLAITGLQAEDEADYYCQSYDSSLSGYVFGTGTKVTVL
notes: human IgG1 format
[3]
  EC50: 0.05 to 1 nM
[5]
  Kd: 250 to 500 nM

B3: A-004 (IgG1 format) (antibody, V domains shown)
VH: EVQLVESGGGLVKPGGSLRLSCAASGFTFSSYSMNWVRQAPGKGLEWVSSISSSSSYIYYADSVKGRFTISRDNAKNSLYLQMNSLRAEDTAVYYCARGQLLWFGESALIDAFDIWGQGTMVTVSS
VL: EIVLTQSPSSLSASVGDRVTITCRASQSISSYLNWYQLKPGKAPKLLIYAASILQSGVPSRFSGSGSGTDFTLTISSLQPEDFAAYYCQQSYSTPRTFGQGTKLEIK
notes: human IgG1 format
[1]
  EC50: 1 to 20 nM
[3]
  EC50: < 0.02 nM
[5]
  Kd: 100 to 250 nM

B4: C-006 (Fab format) (Fab, V domains shown)
VH: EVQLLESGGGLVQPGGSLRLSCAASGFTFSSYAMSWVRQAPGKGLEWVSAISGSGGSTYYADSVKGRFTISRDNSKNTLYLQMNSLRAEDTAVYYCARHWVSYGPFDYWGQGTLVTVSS
VL: DIQMTQSPSSLSASVGDRVTITCRASQSISSYLNWYQQKPGKAPKLLIYAASSLQSGVPSRFSGSGSGTDFTLTISSLQPEDFATYYCQQSHQSPPITFGQGTKVEIK
notes: Fab in E. coli lysate
[6]
  A450: < 1

B5: C-012 (Fab format) (Fab, V domains shown)
VH: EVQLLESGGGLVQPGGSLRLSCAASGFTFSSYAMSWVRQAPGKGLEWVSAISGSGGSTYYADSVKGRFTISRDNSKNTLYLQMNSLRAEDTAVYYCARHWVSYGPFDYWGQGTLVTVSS
VL: DIQMTQSPSSLSASVGDRVTITCRASQSISSYLNWYQQKPGKAPKLLIYAASSLQSGVPSRFSGSGSGTDFTLTISSLQPEDFATYYCQQSHQSPPITFGQGTKVEIK
notes: Fab in E. coli lysate
[6]
  A450: < 1

B6: A-015 (IgG1 format) (antibody, V domains shown)
VH: not shown
VL: QPVLTQSPSASASLGASVKLTCTLSSGHTNYAIAWRQQQPGKAPRYLMLLNSDGSHTRGGGIPDRFSGSSSGAERYLTISSLQSEDEADYYCMIWHNNAWVFGGGTKLAVL
notes: human IgG1 format
[7]
  percentage binding (FACS heat-map): 1.95%
[8]
  percentage binding (FACS heat-map): 1.17%
[9]
  percentage binding (FACS heat-map): 5.97%
[10]
  percentage binding (FACS heat-map): 1.3%
[11]
  percentage binding (FACS heat-map): 2.91%
[12]
  percentage binding (FACS heat-map): 1.6%

B7: A-013 (IgG1 format) (antibody, V domains shown)
VH: EVQLVESGGGLIQPGGSLRLSCAASGFTVSSNYMSWVRQAPGKGLEWVSVIYSGGSTYYADSVKGRFTISRDNSKNTLYLQMNSLRAEDTAVYYCARGNPYYYGDLQVNFDYWGQGTLVTVSS
VL: QAVVTQEPSLTVSPGGTVTLTCASSTGAVTSAYYPNWFQQKPGQAPRALIYSTSNKHSWTPARFSGSLLGGKAALTLSGVQPEDEADYYCLLYYGGAWVFGGGTKLTVL
notes: human IgG1 format
[2]
  EC50: > 50 nM
[3]
  EC50: < 0.02 nM
[5]
  Kd: 100 to 250 nM
[4]
  EC50: 10 to 50 nM

B8: A-027 (IgG1 format) (antibody, V domains shown)
VH: QVQLVQSGAEVKKPGSSVKVSCKASGGTFSSYAISWVRQAPGQGLEWMGGIIPIFGTANYAQKFQGRVTITADKSTSTAYMELSSLRSEDTAVYYCARARGSTWGYFDYWGQGTLVTVSS
VL: EIVLTQSPASLSLSPGERVTLSCRASQSVSNYLAWYQQKPGQAPRLLIYDASNRATGIPARFSGSGSGTDFTLTISSLEPEDFAVYYCQQRDNWPLTFGGGTKVEIK
notes: human IgG1 format
[1]
  EC50: 1 to 20 nM
[3]
  EC50: > 1 nM
[7]
  percentage binding (FACS heat-map): 3.08%
[8]
  percentage binding (FACS heat-map): 3.32%
[9]
  percentage binding (FACS heat-map): 14.3%
[10]
  percentage binding (FACS heat-map): 2.5%
[11]
  percentage binding (FACS heat-map): 4.75%
[4]
  EC50: > 50 nM
[12]
  percentage binding (FACS heat-map): 2.63%

B9: C-010 (Fab format) (Fab, V domains shown)
VH: QVQLVQSGAEVKKPGSSVKVSCKASGGTFSSYAISWVRQAPGQGLEWMGGIIPIFGTANYAQKFQGRVTITADESTSTAYMELSSLRSEDTAVYYCARGYGEYYPAFDVWGQGTLVTVSS
VL: SYELTQPPSVSVSPGQTASITCSGDKLGDKYASWYQQKPGQSPVLVIYQDSKRPSGIPERFSGSNSGNTATLTISGTQAEDEADYYCASYAHTHSTWVFGGGTKLTVL
notes: Fab in E. coli lysate
[6]
  A450: < 1
[13]
  A450: < 1
Streptavidin
  A450: < 0.1

B10: C-016 (IgG1 format) (antibody, V domains shown)
VH: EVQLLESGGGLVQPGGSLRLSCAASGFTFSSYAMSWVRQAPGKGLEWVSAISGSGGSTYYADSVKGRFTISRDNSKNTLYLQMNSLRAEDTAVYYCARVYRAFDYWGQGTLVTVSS
VL: ASVLTQPPSVSAAPGQKVTISCSGSSSNIGNNYVSWYQQLPGTAPKLLIYDNNKRPSGIPDRFSGSKSGTSATLGITGLQAEDEADYYCHLYTEAESHWVFGGGTKLTVL
notes: wildtype human IgG1 and kappa or lambda constant regions
Murine IGSF11 on cells [14]
  EC50: 20 to 50 nM
Murine IGSF11 on cells [15]
  EC50: 50 to 100 nM

B11: A-007 (IgG1 format) (antibody, V domains shown)
VH: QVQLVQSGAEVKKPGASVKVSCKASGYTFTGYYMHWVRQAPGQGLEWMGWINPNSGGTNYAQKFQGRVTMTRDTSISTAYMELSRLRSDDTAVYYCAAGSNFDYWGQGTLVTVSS
VL: QSALTQPASVSGSPGQSITIACTGSSSDIGSFSYVSWYQQRPGKAPTLIIYGVNNRPLGVSRRFSGSKSGNTASLSISGLQAEDEADYYCSSYTRRSTVIFGGGTKLTVL
notes: human IgG1 format
[2]
  EC50: < 10 nM
[3]
  EC50: < 0.02 nM
[7]
  percentage binding (FACS heat-map): 8.88%
[8]
  percentage binding (FACS heat-map): 65.6%
[9]
  percentage binding (FACS heat-map): 82.3%
[10]
  percentage binding (FACS heat-map): 9.15%
[11]
  percentage binding (FACS heat-map): 13.2%
[4]
  EC50: < 10 nM
[12]
  percentage binding (FACS heat-map): 34.2%
